Earlier results on two molecules are cited in patent US20160114005A1, “HYBRID PROTEIN THAT CONVERTS ARACHIDONIC ACID INTO PROSTACYCLIN” (UNIVERSITY OF HOUSTON SYSTEM, priority 2006, published 2016).

Where “and” joins values, the source holds several entries; their conditions need not be identical. Identical values can stand only once. Like-named read-outs stand apart in the source and are kept apart here.

The Km is the concentration of substrate that gives half-maximal velocity.

Turning to “COX2: Individual cyclooxygenase isoform-2 enzyme [reference compound]”, where the note is “individual COX2, previously characterized by several groups”, the Km was 6.5 µM and 0.9 µM.

B1: PGIS: Individual prostacyclin synthase enzyme (protein, UniProt Q16647 1-500, looked up)
Prostacyclin synthase: MAWAALLGLLAALLLLLLLSRRRTRRPGEPPLDLGSIPWLGYALDFGKDAASFLTRMKEKHGDIFTILVGGRYVTVLLDPHSYDAVVWEPRTRLDFHAYAIFLMERIFDVQLPHYSPSDEKARMKLTLLHRELQALTEAMYTNLHAVLLGDATEAGSGWHEMGLLDFSYSFLLRAGYLTLYGIEALPRTHESQAQDRVHSADVFHTFRQLDRLLPKLARGSLSVGDKDHMCSVKSRLWKLLSPARLARRAHRSKWLESYLLHLEEMGVSEEMQARALVLQLWATQGNMGPAAFWLLLFLLKNPEALAAVRGELESILWQAEQPVSQTTTLPQKVLDSTPVLDSVLSESLRLTAAPFITREVVVDLAMPMADGREFNLRRGDRLLLFPFLSPQRDPEIYTDPEVFKYNRFLNPDGSEKKDFYKDGKRLKNYNMPWGAGHNHCLGRSYAVNSIKQFVFLVLVHLDLELINADVEIPEFDLSRYGFGLMQPEHDVPVRYRIRP
Take B1: the Km (individual PGIS, previously characterized by several groups) was 13.3 µM and 30 µM and 9.5 µM.
